Target: EGFP-EVH2(Mena) (mouse)
Experiment: cross-linking; lysates of MV^D7 cells stably expressing EGFP-EVH2 (Mena); 100 mM EDC and 10 mM NHS-ester, 1 h, room temperature; 50 mM MES pH 6.0, 500 mM NaCl; SDS/6% PAGE and anti-GFP western blot

**Q.** For EGFP-EVH2(Mena) (domain or fragment), which stoichiometry N is on record?
**A.** 4

Source: publication PMC4721544
